The record followed here is article doi:10.1101/243402v1.

Substrate in the series: O=P(O)(O)OC[C@@H](O)[C@@H](O)[C@H](O)[C@H](O)CO
The series is described as follows: purified protein. As to conditions: 100 mM Tris-HCl.

B1: SjaM1Pase2 (Saccharina japonica) (protein)
chain: MEQATANKDISILFDFDGTIGDTETPAMEVAFWELAPYLPDTTPDKLDNLMPEFVRDNAGKAFEFMVETVDEERKAAGMDSVEEMFAAKSEPQNMLDAVDPHRKKFGLKSFAELRAPEGGEAATLLIQQKTETVDALSKIAQPCNGVREVLAALTAATVPFCISTTSPKPRVPASITACGLDEYFPPDKVHSGESDFDPPRFKPNPSVYLKAAETEGKEPVNCIAVEDSGSGVGSASNAGVGLTVGYVGASHIPEYKKDTHAEMLMAGGRAENGKGAEIVISDMKDLLKIIDFFAGAKTAGKLAPFDFPTAMVASMQQPVWVHGKKA
As a reminder, the Km is the substrate concentration at which the rate is half of its maximum. Turning to B1, the Michaelis-Menten constant (Km) was 20 µM.
